Measurements reported in PMC7688639, “Biased localization of actin binding proteins by actin filament conformation” (Nature Communications, 2020).

Columns and labels:
[1] = target: T1, actin filaments (F-actin) polymerised from rabbit muscle actin (rabbit, UniProt P68135 1-377); test: single-molecule TIRF binding kinetics (dwell times); actin filaments tethered to a PEG/biotin-PEG coverslip by streptavidin and biotin-phalloidin; labelled binding domain in solution at ~0.05–0.1 nM; 25 mM imidazole, 25 mM KCl, 4 mM MgCl2, 1 mM EGTA, 1 mM DTT, pH 7.4, 10 µg/mL beta casein; double exponential fit of the CDF, bleaching corrected; conditions: both partners purified
[2] = target: T1, actin filaments (F-actin) polymerised …; test: single-molecule TIRF binding kinetics (on-rate); tethered actin filaments; frequency of binding events for a range of concentrations of actin-binding domain, linear regression of frequency against concentration; conditions: both partners purified

| average dwell time (τav) [1] [s] | ratio of the two dwell-time scales (τ2/τ1) [1] | kon [2] [M⁻¹ s⁻¹] | Binder |
| --- | --- | --- | --- |
| ~1.1 | 18.3 | 2.2e+06 ± 300000 | actin-binding domain of human utrophin (CH1–CH2, AA 1–261) (domain or fragment, maleimide dye on the C-terminal KCK linker (Alexa-488 C5, Alexa-555 C2 or Alexa-647 C2 maleimide; Alexa-555 named as the dye of the dwell-time experiments), KCK linker on the C terminus for maleimide labelling; both cleaved by TEV; also called utrnWT; utrn ABD; source: E. coli BL21 (DE3) pLysS, purified (IMAC, TEV cleavage, size exclusion chromatography); not shown: His10, N-terminal, cleaved; z-tag, N-terminal, cleaved) MAKYGEHEASPDNGQNEFSDIIKSRSDEHNDVQKKTFTKWINARFSKSGKPPINDMFTDLKDGRKLLDLLEGLTGTSLPKERGSTRVHALNNVNRVLQVLHQNNVELVNIGGTDIVDGNHKLTLGLLWSIILHWQVKDVMKDVMSDLQQTNSEKILLSWVRQTTRPYSQVNVLNFTTSWTDGLAFNAVLHRHKPDLFSWDKVVKMSPIERLEHAFSKAQTYLGIEKLLDPEDVAVQLPDKKSIIMYLTSLFEVLPQQVTIDGGSGKCKSA |
| ~4.6 | – | 5e+06 ± 2e+06 | utrophin actin-binding domain Q33A T36A G125A L132A (domain or fragment, maleimide dye on the C-terminal KCK linker (Alexa-488 C5, Alexa-555 C2 or Alexa-647 C2 maleimide; Alexa-555 named as the dye of the dwell-time experiments), KCK linker on the C terminus for maleimide labelling; also called utrnSF; source: E. coli BL21 (DE3) pLysS, purified (IMAC, TEV cleavage, size exclusion chromatography); not shown: His10, N-terminal, cleaved; z-tag, N-terminal, cleaved) MAKYGEHEASPDNGQNEFSDIIKSRSDEHNDVAKKAFTKWINARFSKSGKPPINDMFTDLKDGRKLLDLLEGLTGTSLPKERGSTRVHALNNVNRVLQVLHQNNVELVNIGGTDIVDGNHKLTLALLWSIIAHWQVKDVMKDVMSDLQQTNSEKILLSWVRQTTRPYSQVNVLNFTTSWTDGLAFNAVLHRHKPDLFSWDKVVKMSPIERLEHAFSKAQTYLGIEKLLDPEDVAVQLPDKKSIIMYLTSLFEVLPQQVTIDGGSGKCKSA |
| ~1.3 | 9.6 | 2.4e+06 ± 300000 | utrophin actin-binding domain Q33A T36A K121A (domain or fragment, maleimide dye on the C-terminal KCK linker (Alexa-488 C5, Alexa-555 C2 or Alexa-647 C2 maleimide; Alexa-555 named as the dye of the dwell-time experiments), KCK linker on the C terminus for maleimide labelling; also called utrnLAM; source: E. coli BL21 (DE3) pLysS, purified (IMAC, TEV cleavage, size exclusion chromatography); not shown: His10, N-terminal, cleaved; z-tag, N-terminal, cleaved) MAKYGEHEASPDNGQNEFSDIIKSRSDEHNDVAKKAFTKWINARFSKSGKPPINDMFTDLKDGRKLLDLLEGLTGTSLPKERGSTRVHALNNVNRVLQVLHQNNVELVNIGGTDIVDGNHALTLGLLWSIILHWQVKDVMKDVMSDLQQTNSEKILLSWVRQTTRPYSQVNVLNFTTSWTDGLAFNAVLHRHKPDLFSWDKVVKMSPIERLEHAFSKAQTYLGIEKLLDPEDVAVQLPDKKSIIMYLTSLFEVLPQQVTIDGGSGKCKSA |
